Experimental data taken from the supplement of paper PMC10266784.

B1: library; numbered along this chain (parent)
chain: MAAAAAAAAEQQSSNGPVKKSMREKAVERRSVNKEHNSNFKAGYIPIDEDRLHKTGLRGRKGNLAICVIILLFILAVINLIITLVIWAVIRIGPNGCDSMEFHESGLLRFKQVSDMGVIHPLYKSTVGGRRNENLVITGNNQPIVFQQGTTKLSVENNKTSITSDIGMQFFDPRTQNILFSTDYETHEFHLPSGVKSLNVQKASTERITSNATSDLNIKVDGRAIVRGNEGVFIMGKTIEFHMGGNMELKAENSIILNGSVMVSTTRLPSSSSGDQLGSGDWVRYKLCMCADGTLFKVQVTSQNMGCQISDNPCGNTH

Variants of: B1
Assay: SGCB cell-surface expression functional score (HA stain, bin4 vs bin1, normalised to synonymous) (log10 ratio); higher = more cell-surface SGCB (functional)
In short: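 Codon-saturation libraries of HA-tagged, YFP-fused human beta-sarcoglycan were lentivirally transduced at MOI <0.1 into HEK293 cells stably expressing alpha-, gamma- and delta-sarcoglycan. YFP-positive cells were sorted after 72 hours, grown 5–7 days, stained on ice with Alexa Fluor 647 anti-HA, fixed, sorted into four 5% intensity bins and amplicon-sequenced. The functional score is the log ratio of highest-bin to lowest-bin variant frequency, taken as the median over codons and duplicate transductions. Synonymous variants were scaled per section to mean 0, SD 0.5.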

First: MAAAAAAAAEQQSSNGPVKKSMREKAVERRSVNKEHNSNFKAGYIPIDEDRLHKTGLRGRKGNLAICVIILLFILAVINLIITLVIWAVIRIGPNGCDSMEFHESGLLRFKQVSDMGVIHPLYKSTVGGRRNENLVITGNNQPIVFQQGTTKLSVENNKTSITSDIGMQFFDPRTQNILFSTDYETHEFHLPSGVKSLNVQKASTERITSNATSDLNIKVDGRAIVRGNEGVFIMGKTIEFHMGGNMELKAENSIILNGSVMVSTTRLPSSSSGDQLGSGDWVRYKLCMCIDGTLFKVQVTSQNMGCQISDNPCGNTH [A291I]
Second: MAAAAAAAAEQQSSNGPVKKSMREKAVERRSVNKEHNSNFKAGYIPIDEDRLHKTGLRGRKGNLAICVIILLFILAVINLIITLVIWAVIRIGPNGCDSMEFHESGLLRFKQVSDMGVIHPLYKSTVGGRRNENLVITGNNQPIVFQQGTTKLSVENNKTSITSDIGMQFFDPRTQNILFSTDYETHEFHLPSGVKSLNVQKASTERITSNATSDLNIKVDGRAIVRGNEGVFIMGKTIEFHMGGNMELKAENSIILNGSVMVSTTRLPSSSSGDQLGSGDWVRYKLCMCGDGTLFKVQVTSQNMGCQISDNPCGNTH [A291G]
The “SGCB cell-surface expression functional score (log10)” value of the first is lower: -0.64 for the first, -0.19 for the second.

First: MAAAAAAAAEQQSSNGPVKKSMREKAVERRSVNKEHNSNFKAGYIPIDEDRLHKTGLRGRKGNLAICVIILLFILAVINLIITLVIWAVIRIGPNGCDSMEFHESGLLRFKQVSDMGVIHPLYKSTVGGRRNENLVITGNNQPIVFQQGTTKLSVENNKTSITSDIGMQFFDPRTQNILFSTDYETHEFHLPSGVKSLNVQKASTERITSNATSDLNIKVDGRAIVRGNEGVFIMGKTIEFHMGGNMELKAENSIILNGSVMVSTTRLPSSSSGDQLGSGDWVRYKLCMCFDGTLFKVQVTSQNMGCQISDNPCGNTH [A291F]
Second: MAAAAAAAAEQQSSNGPVKKSMREKAVERRSVNKEHNSNFKAGYIPIDEDRLHKTGLRGRKGNLAICVIILLFILAVINLIITLVIWAVIRIGPNGCDSMEFHESGLLRFKQVSDMGVIHPLYKSTVGGRRNENLVITGNNQPIVFQQGTTKLSVENNKTSITSDIGMQFFDPRTQNILFSTDYETHEFHLPSGVKSLNVQKASTERITSNATSDLNIKVDGRAIVRGNEGVFIMGKTIEFHMGGNMELKAENSIILNGSVMVSTTRLPSSSSGDQLGSGDWVRYKLCMCEDGTLFKVQVTSQNMGCQISDNPCGNTH [A291E]
The “SGCB cell-surface expression functional score (log10)” value of the first is higher: 0.25 for the first, -0.98 for the second.

Going from MAAAAAAAAEQQSSNGPVKKSMREKAVERRSVNKEHNSNFKAGYIPIDEDRLHKTGLRGRKGNLAICVIILLFILAVINLIITLVIWAVIRIGPNGCDSMEFHESGLLRFKQVSDMGVIHPLYKSTVGGRRNENLVITGNNQPIVFQQGTTKLSVENNKTSITSDIGMQFFDPRTQNILFSTDYETHEFHLPSGVKSLNVQKASTERITSNATSDLNIKVDGRAIVRGNEGVFIMGKTIEFHMGGNMELKAENSIILNGSVMVSTTRLPSSSSGDQLGSGDWVRYKLCMCKDGTLFKVQVTSQNMGCQISDNPCGNTH [A291K] to MAAAAAAAAEQQSSNGPVKKSMREKAVERRSVNKEHNSNFKAGYIPIDEDRLHKTGLRGRKGNLAICVIILLFILAVINLIITLVIWAVIRIGPNGCDSMEFHESGLLRFKQVSDMGVIHPLYKSTVGGRRNENLVITGNNQPIVFQQGTTKLSVENNKTSITSDIGMQFFDPRTQNILFSTDYETHEFHLPSGVKSLNVQKASTERITSNATSDLNIKVDGRAIVRGNEGVFIMGKTIEFHMGGNMELKAENSIILNGSVMVSTTRLPSSSSGDQLGSGDWVRYKLCMCDDGTLFKVQVTSQNMGCQISDNPCGNTH [A291D], the “SGCB cell-surface expression functional score (log10)” value falls from -0.46 to -0.71.

Going from MAAAAAAAAEQQSSNGPVKKSMREKAVERRSVNKEHNSNFKAGYIPIDEDRLHKTGLRGRKGNLAICVIILLFILAVINLIITLVIWAVIRIGPNGCDSMEFHESGLLRFKQVSDMGVIHPLYKSTVGGRRNENLVITGNNQPIVFQQGTTKLSVENNKTSITSDIGMQFFDPRTQNILFSTDYETHEFHLPSGVKSLNVQKASTERITSNATSDLNIKVDGRAIVRGNEGVFIMGKTIEFHMGGNMELKAENSIILNGSVMVSTTRLPSSSSGDQLGSGDWVRYKLCMCCDGTLFKVQVTSQNMGCQISDNPCGNTH [A291C] to MAAAAAAAAEQQSSNGPVKKSMREKAVERRSVNKEHNSNFKAGYIPIDEDRLHKTGLRGRKGNLAICVIILLFILAVINLIITLVIWAVIRIGPNGCDSMEFHESGLLRFKQVSDMGVIHPLYKSTVGGRRNENLVITGNNQPIVFQQGTTKLSVENNKTSITSDIGMQFFDPRTQNILFSTDYETHEFHLPSGVKSLNVQKASTERITSNATSDLNIKVDGRAIVRGNEGVFIMGKTIEFHMGGNMELKAENSIILNGSVMVSTTRLPSSSSGDQLGSGDWVRYKLCMCHDGTLFKVQVTSQNMGCQISDNPCGNTH [A291H], the “SGCB cell-surface expression functional score (log10)” value falls from -0.42 to -0.89.

First: MAAAAAAAAEQQSSNGPVKKSMREKAVERRSVNKEHNSNFKAGYIPIDEDRLHKTGLRGRKGNLAICVIILLFILAVINLIITLVIWAVIRIGPNGCDSMEFHESGLLRFKQVSDMGVIHPLYKSTVGGRRNENLVITGNNQPIVFQQGTTKLSVENNKTSITSDIGMQFFDPRTQNILFSTDYETHEFHLPSGVKSLNVQKASTERITSNATSDLNIKVDGRAIVRGNEGVFIMGKTIEFHMGGNMELKAENSIILNGSVMVSTTRLPSSSSGDQLGSGDWVRYKLCMQADGTLFKVQVTSQNMGCQISDNPCGNTH [C290Q]
Second: MAAAAAAAAEQQSSNGPVKKSMREKAVERRSVNKEHNSNFKAGYIPIDEDRLHKTGLRGRKGNLAICVIILLFILAVINLIITLVIWAVIRIGPNGCDSMEFHESGLLRFKQVSDMGVIHPLYKSTVGGRRNENLVITGNNQPIVFQQGTTKLSVENNKTSITSDIGMQFFDPRTQNILFSTDYETHEFHLPSGVKSLNVQKASTERITSNATSDLNIKVDGRAIVRGNEGVFIMGKTIEFHMGGNMELKAENSIILNGSVMVSTTRLPSSSSGDQLGSGDWVRYKLCMVADGTLFKVQVTSQNMGCQISDNPCGNTH [C290V]
The “SGCB cell-surface expression functional score (log10)” value of the first is higher: -0.2 for the first, -0.97 for the second.

Compared with MAAAAAAAAEQQSSNGPVKKSMREKAVERRSVNKEHNSNFKAGYIPIDEDRLHKTGLRGRKGNLAICVIILLFILAVINLIITLVIWAVIRIGPNGCDSMEFHESGLLRFKQVSDMGVIHPLYKSTVGGRRNENLVITGNNQPIVFQQGTTKLSVENNKTSITSDIGMQFFDPRTQNILFSTDYETHEFHLPSGVKSLNVQKASTERITSNATSDLNIKVDGRAIVRGNEGVFIMGKTIEFHMGGNMELKAENSIILNGSVMVSTTRLPSSSSGDQLGSGDWVRYKLCMPADGTLFKVQVTSQNMGCQISDNPCGNTH [C290P], MAAAAAAAAEQQSSNGPVKKSMREKAVERRSVNKEHNSNFKAGYIPIDEDRLHKTGLRGRKGNLAICVIILLFILAVINLIITLVIWAVIRIGPNGCDSMEFHESGLLRFKQVSDMGVIHPLYKSTVGGRRNENLVITGNNQPIVFQQGTTKLSVENNKTSITSDIGMQFFDPRTQNILFSTDYETHEFHLPSGVKSLNVQKASTERITSNATSDLNIKVDGRAIVRGNEGVFIMGKTIEFHMGGNMELKAENSIILNGSVMVSTTRLPSSSSGDQLGSGDWVRYKLCMNADGTLFKVQVTSQNMGCQISDNPCGNTH [C290N] is higher in “SGCB cell-surface expression functional score (log10)” value: -1.32 for the first, -0.11 for the second.

Going from MAAAAAAAAEQQSSNGPVKKSMREKAVERRSVNKEHNSNFKAGYIPIDEDRLHKTGLRGRKGNLAICVIILLFILAVINLIITLVIWAVIRIGPNGCDSMEFHESGLLRFKQVSDMGVIHPLYKSTVGGRRNENLVITGNNQPIVFQQGTTKLSVENNKTSITSDIGMQFFDPRTQNILFSTDYETHEFHLPSGVKSLNVQKASTERITSNATSDLNIKVDGRAIVRGNEGVFIMGKTIEFHMGGNMELKAENSIILNGSVMVSTTRLPSSSSGDQLGSGDWVRYKLCMMADGTLFKVQVTSQNMGCQISDNPCGNTH [C290M] to MAAAAAAAAEQQSSNGPVKKSMREKAVERRSVNKEHNSNFKAGYIPIDEDRLHKTGLRGRKGNLAICVIILLFILAVINLIITLVIWAVIRIGPNGCDSMEFHESGLLRFKQVSDMGVIHPLYKSTVGGRRNENLVITGNNQPIVFQQGTTKLSVENNKTSITSDIGMQFFDPRTQNILFSTDYETHEFHLPSGVKSLNVQKASTERITSNATSDLNIKVDGRAIVRGNEGVFIMGKTIEFHMGGNMELKAENSIILNGSVMVSTTRLPSSSSGDQLGSGDWVRYKLCMLADGTLFKVQVTSQNMGCQISDNPCGNTH [C290L], the “SGCB cell-surface expression functional score (log10)” value falls from -0.16 to -0.51.

MAAAAAAAAEQQSSNGPVKKSMREKAVERRSVNKEHNSNFKAGYIPIDEDRLHKTGLRGRKGNLAICVIILLFILAVINLIITLVIWAVIRIGPNGCDSMEFHESGLLRFKQVSDMGVIHPLYKSTVGGRRNENLVITGNNQPIVFQQGTTKLSVENNKTSITSDIGMQFFDPRTQNILFSTDYETHEFHLPSGVKSLNVQKASTERITSNATSDLNIKVDGRAIVRGNEGVFIMGKTIEFHMGGNMELKAENSIILNGSVMVSTTRLPSSSSGDQLGSGDWVRYKLCMYADGTLFKVQVTSQNMGCQISDNPCGNTH [C290Y] and MAAAAAAAAEQQSSNGPVKKSMREKAVERRSVNKEHNSNFKAGYIPIDEDRLHKTGLRGRKGNLAICVIILLFILAVINLIITLVIWAVIRIGPNGCDSMEFHESGLLRFKQVSDMGVIHPLYKSTVGGRRNENLVITGNNQPIVFQQGTTKLSVENNKTSITSDIGMQFFDPRTQNILFSTDYETHEFHLPSGVKSLNVQKASTERITSNATSDLNIKVDGRAIVRGNEGVFIMGKTIEFHMGGNMELKAENSIILNGSVMVSTTRLPSSSSGDQLGSGDWVRYKLCMSADGTLFKVQVTSQNMGCQISDNPCGNTH [C290S] are within 0.2 log units of each other in “SGCB cell-surface expression functional score (log10)” value: -0.57 for the first, -0.53 for the second.

Going from MAAAAAAAAEQQSSNGPVKKSMREKAVERRSVNKEHNSNFKAGYIPIDEDRLHKTGLRGRKGNLAICVIILLFILAVINLIITLVIWAVIRIGPNGCDSMEFHESGLLRFKQVSDMGVIHPLYKSTVGGRRNENLVITGNNQPIVFQQGTTKLSVENNKTSITSDIGMQFFDPRTQNILFSTDYETHEFHLPSGVKSLNVQKASTERITSNATSDLNIKVDGRAIVRGNEGVFIMGKTIEFHMGGNMELKAENSIILNGSVMVSTTRLPSSSSGDQLGSGDWVRYKLCMRADGTLFKVQVTSQNMGCQISDNPCGNTH [C290R] to MAAAAAAAAEQQSSNGPVKKSMREKAVERRSVNKEHNSNFKAGYIPIDEDRLHKTGLRGRKGNLAICVIILLFILAVINLIITLVIWAVIRIGPNGCDSMEFHESGLLRFKQVSDMGVIHPLYKSTVGGRRNENLVITGNNQPIVFQQGTTKLSVENNKTSITSDIGMQFFDPRTQNILFSTDYETHEFHLPSGVKSLNVQKASTERITSNATSDLNIKVDGRAIVRGNEGVFIMGKTIEFHMGGNMELKAENSIILNGSVMVSTTRLPSSSSGDQLGSGDWVRYKLCMTADGTLFKVQVTSQNMGCQISDNPCGNTH [C290T], the “SGCB cell-surface expression functional score (log10)” value rises from -0.56 to -0.17.

In the case of MAAAAAAAAEQQSSNGPVKKSMREKAVERRSVNKEHNSNFKAGYIPIDEDRLHKTGLRGRKGNLAICVIILLFILAVINLIITLVIWAVIRIGPNGCDSMEFHESGLLRFKQVSDMGVIHPLYKSTVGGRRNENLVITGNNQPIVFQQGTTKLSVENNKTSITSDIGMQFFDPRTQNILFSTDYETHEFHLPSGVKSLNVQKASTERITSNATSDLNIKVDGRAIVRGNEGVFIMGKTIEFHMGGNMELKAENSIILNGSVMVSTTRLPSSSSGDQLGSGDWVRYKLCMWADGTLFKVQVTSQNMGCQISDNPCGNTH [C290W], the “SGCB cell-surface expression functional score (log10)” value is reported as 0.07.
